This is an account of results in the Human Domainome abundance scans (Beltran et al. 2025).

B1: Tumor protein p73, residues 487 to 549; numbered along this chain, O15350 (parent)
chain: YHADPSLVSFLTGLGCPNCIEYFTSQGLQSIYHLQNLTIEDLGALKIPEQYRMTIWRGLQDLK

± gives the uncertainty stated by the source.

In the data set the parent is B1. Put plainly: abundance fitness (aPCA) (normalised: wild type 0, dead -1); higher = more abundant; growth selection in yeast, the domain comes from the species named. The following applies: Homo sapiens.
Consider YHADPSLVSFLTGLGCPNCIEYFTSQGLQSIYHLQNLTIEDLGALKIPEQYRMTIWRGLQDAK, for which the abundance fitness is -0.104 ± 0.045.
In the case of YHADPSLVSFLTGLGCPNCIEYFTSQGLQSIYHLQNLTIEDLGALKIPEQYRMTIWRGLQDEK, the abundance fitness is -0.007 ± 0.038.
Under YHADPSLVSFLTGLGCPNCIEYFTSQGLQSIYHLQNLTIEDLGALKIPEQYRMTIWSGLQDLK stands -0.114 ± 0.043; under YHADPSLVSFLTGLGCPNCIEYFTSQGLQSIYHLQNLTIEDLGALKIPEQYRMTIWTGLQDLK, 0.024 ± 0.054; under YHADPSLVSFLTGLGCPNCIEYFTSQGLQSIYHLQNLTIEDLGALKIPEQYRMTIWYGLQDLK, -0.023 ± 0.056.
As for YHADPSLVSFLTGLGCPNCIEYFTSQGLQSIYHLQNLTIEDLGALKIPEQYRMTIWPGLQDLK, the abundance fitness was -0.625 ± 0.11.
To YHADPSLVSFLTGLGCPNCIEYFTSQGLQSIYHLQNLTIEDLGALKIPEQYRMTIWWGLQDLK belongs -0.114 ± 0.039; to YHADPSLVSFLTGLGCPNCIEYFTSQGLQSIYHLQNLTIEDLGALKIPEQYRMTIWVGLQDLK, -0.255 ± 0.051; to YHADPSLVSFLTGLGCPNCIEYFTSQGLQSIYHLQNLTIEDLGALKIPEQYRMTIWQGLQDLK, -0.036 ± 0.042.
Consider YHADPSLVSFLTGLGCPNCIEYFTSQGLQSIYHLQNLTIEDLGALKIPEQYRMTIWRGLSDLK, for which the abundance fitness was 0.018 ± 0.036.
With YHADPSLVSFLTGLGCPNCIEYFTSQGLQSIYHLQNLTIEDLGALKIPEQYRMTIWRGLMDLK, the abundance fitness was 0.031 ± 0.046.
To YHADPSLVSFLTGLGCPNCIEYFTSQGLQSIYHLQNLTIEDLGALKIPEQYRMTIWRGLIDLK belongs 0.034 ± 0.066; to YHADPSLVSFLTGLGCPNCIEYFTSQGLQSIYHLQNLTIEDLGALKIPEQYRMTIWRGLTDLK, -0.017 ± 0.079; to YHADPSLVSFLTGLGCPNCIEYFTSQGLQSIYHLQNLTIEDLGALKIPEQYRMTIWRGLVDLK, -0.041 ± 0.034.
In the case of YHADPSLVSFLTGLGCPNCIEYFTSQGLQSIYHLQNLTIEDLGALKIPEQYRMTIWRGLWDLK, the abundance fitness is -0.068 ± 0.035.
As for YHADPSLVSFLTGLGCPNCIEYFTSQGLQSIYHLQNLTIEDLGALKIPEQYRMTIWRGLNDLK, the abundance fitness worked out at 0.089 ± 0.057.
In the case of YHADPSLVSFLTGLGCPNCIEYFTSQGLQSIYHLQNLTIEDLGALKIPEQYRMTIWRGLADLK, the abundance fitness came out at 0.047 ± 0.027.
On to YHADPSLVSFLTGLGCPNCIEYFTSQGLQSIYHLQNLTIEDLGALKIPEQYRMTIWRGLFDLK, for which the abundance fitness is -0.096 ± 0.071.
YHADPSLVSFLTGLGCPNCIEYFTSQGLQSIYHLQNLTIEDLGALKIPEQYRMTIWRGLGDLK: the abundance fitness is -0.027 ± 0.03.
To YHADPSLVSFLTGLGCPNCIEYFTSQGLQSIYHLQNLTIEDLGALKIPEQYRMTIWRGLLDLK belongs -0.013 ± 0.04; to YHADPSLVSFLTGLGCPNCIEYFTSQGLQSIYHLQNLTIEDLGALKIPEQYRMTIWRGLCDLK, -0.102 ± 0.075.
Regarding YHADPSLVSFLTGLGCPNCIEYFTSQGLQSIYHLQNLTIEDLGALKIPEQYRMTIWRGLDDLK, the abundance fitness was -0.01 ± 0.058.
To YHADPSLVSFLTGLGCPNCIEYFTSQGLQSIYHLQNLTIEDLGALKIPEQYRMTIWRGLKDLK belongs 0.117 ± 0.044; to YHADPSLVSFLTGLGCPNCIEYFTSQGLQSIYHLQNLTIEDLGALKIPEQYRMTIWRGLYDLK, 0.06 ± 0.1; to YHADPSLVSFLTGLGCPNCIEYFTSQGLQSIYHLQNLTIEDLGALKIPEQYRMTIWRGLPDLK, -0.388 ± 0.05.
YHADPSLVSFLTGLGCPNCIEYFTSQGLQSIYHLQNLTIEDLGALKIPEQYRMTIWRGLEDLK: the abundance fitness came out at 0.101 ± 0.044.
Under YHADPSLVSFLTGLGCPNCIEYFTSQGLQSIYHLQNLTIEDLGALKIPEQYRMTIWRGLHDLK stands -0.246 ± 0.083.
Under YHADPSLVSFLTGLGCPNCIEYFTSQGLQSIYHLQNLTIEDLGALKIPEQYRMTIWRGMQDLK stands -0.042 ± 0.078; under YHADPSLVSFLTGLGCPNCIEYFTSQGLQSIYHLQNLTIEDLGALKIPEQYRMTIWRGTQDLK, -0.157 ± 0.05; under YHADPSLVSFLTGLGCPNCIEYFTSQGLQSIYHLQNLTIEDLGALKIPEQYRMTIWRGNQDLK, -0.631 ± 0.13.
Turning to YHADPSLVSFLTGLGCPNCIEYFTSQGLQSIYHLQNLTIEDLGALKIPEQYRMTIWRGKQDLK, the abundance fitness was -0.561 ± 0.11.
With YHADPSLVSFLTGLGCPNCIEYFTSQGLQSIYHLQNLTIEDLGALKIPEQYRMTIWRGEQDLK, the abundance fitness is -0.95 ± 0.16.
Take YHADPSLVSFLTGLGCPNCIEYFTSQGLQSIYHLQNLTIEDLGALKIPEQYRMTIWRGWQDLK: the abundance fitness was -0.213 ± 0.05.
As to YHADPSLVSFLTGLGCPNCIEYFTSQGLQSIYHLQNLTIEDLGALKIPEQYRMTIWRGFQDLK, the abundance fitness is -0.065 ± 0.053.
As for YHADPSLVSFLTGLGCPNCIEYFTSQGLQSIYHLQNLTIEDLGALKIPEQYRMTIWRGYQDLK, the abundance fitness was -0.097 ± 0.12.
Under YHADPSLVSFLTGLGCPNCIEYFTSQGLQSIYHLQNLTIEDLGALKIPEQYRMTIWRGGQDLK stands -0.538 ± 0.075; under YHADPSLVSFLTGLGCPNCIEYFTSQGLQSIYHLQNLTIEDLGALKIPEQYRMTIWRGRQDLK, -0.733 ± 0.063; under YHADPSLVSFLTGLGCPNCIEYFTSQGLQSIYHLQNLTIEDLGALKIPEQYRMTIWRGQQDLK, -0.554 ± 0.092.
For YHADPSLVSFLTGLGCPNCIEYFTSQGLQSIYHLQNLTIEDLGALKIPEQYRMTIWRGHQDLK, the abundance fitness was -0.801 ± 0.18.
Take YHADPSLVSFLTGLGCPNCIEYFTSQGLQSIYHLQNLTIEDLGALKIPEQYRMTIWRGCQDLK: the abundance fitness is -0.106 ± 0.1.
For the variant YHADPSLVSFLTGLGCPNCIEYFTSQGLQSIYHLQNLTIEDLGALKIPEQYRMTIWRGSQDLK, the abundance fitness was -0.265 ± 0.039.
As to YHADPSLVSFLTGLGCPNCIEYFTSQGLQSIYHLQNLTIEDLGALKIPEQYRMTIWRGAQDLK, the abundance fitness was -0.054 ± 0.054.
To YHADPSLVSFLTGLGCPNCIEYFTSQGLQSIYHLQNLTIEDLGALKIPEQYRMTIWRGVQDLK belongs 0.046 ± 0.056.
